# B1: IKKγ(150–272): IKKγ fragment encompassing residues 150 to 272 (protein)
# chain: LGELQESQSRLEAATKECQALEGRARAASEQARQLESEREALQQQHSVQVDQLRMQGQSVEAALRMERQAASEEKRKLAQLQVAYHQLFQEYDNHIKSSVVGSERKRGMQLEDLKQQLQQAEE
# Tests used:
# IKKγ = assay: Thermofluor assay, thermal denaturation of IKKγ alone; format: physicochemical; conditions: various concentrations, SYPRO orange
# From the text: FIG 2 vFLIP-IKKγ interaction and peptide thermofluor analysis. (A) (Left) Cartoon depiction of the ks-vFLIP–IKKγ heterotetramic complex (PDB code 3CL3). The IKKγ and ks-vFLIP monomers are shown in gray and wheat, respectively. (Right) The ks-vFLIP-IKKγ dimer interface highlighting cleft 1 (white) and cleft 2 (cyan). Residues essential for the formation of the cleft 1 interactions (H235, F238, D242, and K246) are colored magenta, and those that interact with cleft 2 (Q236 and E240) are colored blue. (B) IKKγ ks-vFLIP minimal interacting motif (residues 230 to 248) together with those forming the 30- and 21-mer peptides (pink and violet, respectively) used in the thermofluor studies. (C) Thermal denaturation profiles for ks-vFLIP (left) and IKKγ (right) at various concentrations. […] (D) Thermal denaturation of ks-vFLIP in the presence of various concentrations of IKKγ (left) and the 21-mer (pink) and 30-mer (violet) (right) peptides.
# Each experiment was repeated at least 3 times. All peptides were purchased from Eurogentec.
# GB1–ks-vFLIP = biological target: T1, GB1–ks-vFLIP (Human herpesvirus 8 type P, UniProt F5HEZ4); assay: biochemical; format: binding, Kaposi's sarcoma-associated herpesvirus
# T1 construct: ks-vFLIP (residues 1 to 188) was PCR cloned into the EcoRI and XhoI sites of GB1-pBR22b; 6His (C); made in house; host or cells: E. coli BL21(DE3)
# T1 sequence (F5HEZ4 whole entry, the tested form may be a part): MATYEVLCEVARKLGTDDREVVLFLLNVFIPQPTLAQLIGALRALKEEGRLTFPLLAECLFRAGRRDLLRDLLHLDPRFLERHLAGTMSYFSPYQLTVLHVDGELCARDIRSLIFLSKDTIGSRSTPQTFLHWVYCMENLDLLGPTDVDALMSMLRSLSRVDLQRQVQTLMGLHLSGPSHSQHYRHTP
# Method: We next sought to assess the affinity of spIKKγ for vFLIP using isothermal calorimetry (ITC).
# Isothermal calorimetry (ITC) experiments were performed using a Microcal VP-ITC micocalorimeter (MicroCal). For all binding reactions, syringe concentrations varied between ∼85 and 100 μM for IKKγ(150–272) and cell concentrations between ∼8 and 10 μM for GB1-vFLIP. Titrations consisted of an initial 2-μl injection, followed by 20 10-μl injections with stirring at 300 rpm. In competition assays, GB1–ks-vFLIP was first incubated with 20 μM spIKKγ and DMSO to 4% prior to loading into the cell and titration with IKKγ(150–272). All ITC binding experiments were performed in deionized water at 25°C owing to the buffer constraints of spIKKγ, GB1–ks-vFLIP, and IKKγ(150–272), where GB1–ks-vFLIP and IKKγ(150–272) were buffer matched by overnight dialysis, followed by the addition of 4% DMSO to each. […] Following collection, all data were analyzed using ORIGIN 70 software and fitted to a one-site binding model with each experiment performed at least in triplicate.
# ks-vFLIP = conditions: IKKγ(150–272) at 30 μM; 30 μM ks-vFLIP unless otherwise stated, SYPRO orange; repeated at least 3 times
# Method: To achieve this, an unmodified 30-mer peptide (residues 224 to 253) was designed to encompass the interacting motif and neighboring residues along with a 21-mer (residues 226 to 248), only marginally longer than the motif itself (residues 230 to 248 [Fig. 2B]). These were commercially synthesized and their ability to associate with ks-vFLIP was assessed using a thermofluor assay (Fig. 2C and D).
# Thermofluor studies were conducted using the MyIQ reverse transcription-PCR (RT-PCR) system (Bio-Rad) in a 96-well plate format. Trials were performed in which 30 μM ks-vFLIP (unless otherwise stated) was combined with either IKKγ or mimetic peptides (at the specified concentrations) prior to the addition of SYPRO orange diluted in a 1:1,000 (vol/vol) ratio and thermal denaturation. The data were subsequently processed using the Bio-Rad iQ5 software. Each experiment was repeated at least 3 times.
molecule,measurement,setting,value
B1,thermal denaturation response of IKKγ,IKKγ,lack of a significant response
same,apparent dissociation constant (Kd) of the vFLIP-IKKγ interaction in the presence of peptide,"GB1–ks-vFLIP; GB1–ks-vFLIP preincubated with 20 μM spIKKγ, 4% DMSO, deionized water, 25°C, at least triplicate",30 µM
same,"binding affinity for ks-vFLIP, spIKKγ compared with IKKγ(150–272)",GB1–ks-vFLIP; ITC,nearly equivalent binding affinities
same,shift in melting temperature of ks-vFLIP,ks-vFLIP,~8 °C

# — PMC5686756, “IKKγ-Mimetic Peptides Block the Resistance to Apoptosis Associated with Kaposi's Sarcoma-Associated Herpesvirus Infection” (Journal of Virology, 2017)
